Assay results as given in patent US12178848B2, “Methods and compositions for the treatment of exocrine pancreatic insufficiency” (Board of Regents, The University of Texas System, priority 2016, dated 2024).

B1: fibroblast growth factor 21 (protein, UniProt Q9NSA1 29-209, looked up)
Fibroblast growth factor 21: HPIPDSSPLLQFGGQVRQRYLYTDDAQQTEAHLEIREDGTVGGAADQSPESLLQLKALKPGVIQILGVKTSRFLCQRPDGALYGSLHFDPEACSFRELLLEDGYNVYQSEAHGLPLHLPGNKSPHRDPAPRGPARFLPLPGLPPALPEPPGILAPQPPDVGSSDPLSMVGPSQGRSPSYAS
notes: human recombinant FGF21 from Novo Nordisk, the native form of the human FGF21

Columns and labels:
[1] = system: ad-lib fed WT mice; test: FGF21 protein levels in pancreatic juice and plasma after CCK treatment; assay type: in vivo, mouse; conditions: 15 min CCK treatment vs basal
Text: (§1) Fgf21-knockout (KO) mice (Potthoff, et al., Proc Natl Acad Sci USA 106, 10853-10858, 2009), Fgf21-transgenic (Tg) mice (Inagaki, et al., Cell Metab 5, 415-425, 2007), KLB-T and WT littermates were maintained on a C57Bl/6J background. β-Klotho-KO and heterozygous littermates were kept on a mixed C57BL/6J; 129/Sv background (Ding, et al., Cell Metab 16, 387-393, 2012). All mice were housed in a pathogen-free facility and fed a standard chow diet (Harlan Teklad 2916). For fasting refeeding experiments, mice were fasted overnight and then refed for 2 hours with standard chow diet. Acute pancreatitis was induced by administration of seven hourly intraperitoneal injections of 50 μg/kg cerulein (Sigma), whereas mice in the control group were injected with saline. FGF21 in plasma was measured using a mouse FGF21 ELISA kit (Biovendor). Male mice were used for all experiments.
(§2) Mice were injected with vehicle (10 mM Na2HPO4, 2% [w/v] glycerol, pH 7.6) or 1 mg/kg human recombinant FGF21 (Novo Nordisk) subcutaneously twice per day for two consecutive days. Mice were fasted for 6 hours, and pancreatic juice was collected for 15 minutes. The final injection of vehicle or FGF21 was given 1 hour prior to pancreatic juice collection.

[2] = system: pancreatic protein synthesis; test: Pancreatic protein synthesis, 3H-phenylalanine flooding dose method; assay type: in vivo, mouse; conditions: mice, 1 mg/kg FGF21 or 5 mg/kg CCK for 2 hr
Method: Pancreatic protein synthesis was measured by the flooding dose method using ^3H-phenylalanine (Sans, et al., American journal of physiology 287, G667-675, 2004).

[3] = system: eIF4E-BP1; test: Western blot of pancreatic phospho-eIF4E-BP1; assay type: in vivo, mouse; conditions: mice, 1 mg/kg FGF21 or CCK for 15 min
Method: (§3) Pancreas was homogenized using Fastprep-24 lysing matrix bead tubes (MP Biomedicals) in 1×RIPA buffer (Cell Signaling Technology) supplemented with a cocktail of protease and phosphatase inhibitors (Roche). Protein lysate concentrations were measured using the DC Protein Assay (Biorad). Equal protein amounts were loaded and electrophoresed in a […] SDS-polyacrylamide gel (Biorad) and transferred to nitrocellulose membranes (Biorad). Membranes were blocked with 5% BSA in TBST for 1 hour. Probing of membranes with antibodies against FGF21, amylase and lipase (Santa Cruz); β-actin (Abcam); p-EIF2α, p-ERK1/2, and p-eIF4E-BP1 (Cell Signaling Technology) was performed overnight at 4° C. Membranes were then incubated with HRP-conjugated secondary antibodies (Cell Signaling Technology) against the primary antibody's host species for 1 hour. Membranes were developed using the Super Signal West Chemiluminescence Kit (Thermo) and signal was detected with an ImageQuant LAS4000 luminescent imager (General Electric). Quantification was done using Image J.

[4] = system: ERK1/2; test: Western blot of pancreatic phospho-ERK1/2; assay type: in vivo, mouse; conditions: for ERK1/2 phosphorylation in pancreas (FIG. 4F): WT mice, 1 mg/kg FGF21 or 5 μg/kg CCK (i.p.) for 15 min; for ERK1/2 phosphorylation in pancreas (FIG. 3B): mice, 1 mg/kg FGF21 or 5 mg/kg CCK for 15 min
Method: as §3

[5] = system: PLCβ3; test: Western blot of pancreatic phospho-PLCβ; assay type: in vivo, mouse; conditions: WT mice, 5 μg/kg CCK (i.p.) for 15 min
Method: as §3
(§4) Activation of the CCK-A receptor leads to the phosphorylation of the b isoform of PLC, calcium release, and subsequent secretion. In contrast, FGF receptors activate the γ isoform. To explore whether FGF21 and CCK have different activation profiles for the PLC isoforms, we treated WT mice with vehicle, FGF21, or CCK for 15 min. […]

[6] = system: AR42J cells; test: Calcium imaging with fluo4-AM; assay type: cell-based; conditions: for intracellular calcium release (ΔF/F0): 1 μg/ml FGF21 or 100 pM CCK; for block of CCK-mediated calcium release: inhibitor 30 min prior and during imaging: 1 μM PD173074, 10 μM L-364,718, 10 μM U73122, 100 μM 2-APB; for block of calcium release elicited by FGF21: 1 μg/ml FGF21, inhibitor 30 min prior and during imaging: 1 μM PD173074, 10 μM L-364,718, 10 μM U73122, 100 μM 2-APB
Method: AR42J cells were pre-loaded with 1 μM of the calcium indicator fluo4-AM (Life Technologies) for 30 minutes at 37° C. Where indicated, 1 μM PD173074 (Sigma), 10 μM L-364,718 (Tocris Bioscience), 10 μM U73122 (Tocris Bioscience) or 100 μM 2-APB (Tocris Bioscience) were added during fluo4-AM preloading and to the imaging medium (DMEM without phenol red). Cells were imaged on a BD Pathway 855 bioimager with a 10× objective. Vehicle, FGF21 (1 μg/ml) and CCK (100 pM) were delivered 10 seconds after baseline fluorescence acquisition by an automated fluid delivery mechanism and imaged for a total time of 2 minutes. Calcium release was calculated using Image J as ΔF/F0, where ΔF is the raw fluorescent signal (F) from cells minus their background fluorescence (calculated from a region where no cells and fluorescent signal was expected), and F0 was the average of the first 6 frames before the compound was added. Sample size (n) corresponds to the number of cell clusters measured with each cell cluster containing 5-20 cells.

[7] = system: Fgf21-KO mice; test: H&E staining of pancreas, eosinophilic area fraction; assay type: in vivo, mouse; conditions: 1 mg/kg recombinant FGF21 twice per day for two consecutive days
Method: as §2
Mouse pancreas was fixed in 10% neutral buffered formalin overnight and then paraffin embedded, sectioned and hematoxylin and eosin stained. For fresh frozen histology, the pancreas was quickly dissected, snap frozen in cooled isopentane and sectioned at 14-16 μm. The sections were then fixed in 10% neutral buffered formalin for 15 min at 4° C., washed 3 times in 1×PBS and mounted with Vectashield mounting medium with DAPI (Vector Laboratories). Images were acquired with a Zeiss Axioscan Z1 slide scanner at a 20× magnification. Quantification of the eosinophilic area was performed using Image J.

[8] = system: Fgf21-KO mice; test: Western blot of pancreatic amylase and lipase levels; assay type: in vivo, mouse; conditions: 1 mg/kg recombinant FGF21 twice per day for two consecutive days
Method: as §2
as §3, with “Membranes were then incubated with HRP-conjugated secondary antibodies (Cell Signaling Technology) against the primary antibody's host species for 1 hour.” left out

[9] = system: PLCγ1; test: Western blot of pancreatic phospho-PLCγ; assay type: in vivo, mouse; conditions: WT mice, 1 mg/kg FGF21 for 15 min
Method: as §3, §4

[10] = system: Klb^fl/fl and Klb^Cela1−/− mice; test: Pancreatic juice collection: flow rate and amylase levels; assay type: in vivo, mouse; conditions: 1 mg/kg FGF21 for 2 consecutive days
Method: as §2
To explore whether FGF21 also acts directly on pancreatic acinar cells in vivo, we generated an inducible acinar cell-specific β-Klotho (Klb) knockdown mouse model in which Cre recombinase expression was under the control of a modified estrogen receptor and the elastase promoter. Efficient knockdown of Klb expression following tamoxifen administration was confirmed in floxed Klb mice carrying the Cre allele (Klb^Cela1−/−). There was no change in plasma FGF21 concentrations in Klb^Cela1−/− mice under fasted conditions. Similar to the Fgf21 KO mice, the Klb^Cela1−/− mice had increased zymogen granule density and pancreatic digestive enzyme concentrations. To test whether FGF21 acts directly on pancreatic acinar cells to stimulate secretion, Klb^fl/fl and Klb^Cela1−/− mice were treated with either vehicle or FGF21 and pancreatic juice collected for 15 min. […] Thus, the basis for the remaining effect of FGF21 on pancreatic juice flow rate requires further investigation.

[11] = system: secretin; test: Blood concentration of secretin; assay type: in vivo, mouse; conditions: mice treated with FGF21
[12] = system: mouse primary acinar cells; test: Cell secretion assay, amylase secretion; assay type: cell-based; conditions: 1 μg/mL FGF21 for 30 min
Method: Primary acinar cells were prepared by modification of a published protocol (Williams, et al., The American journal of physiology 235, 517-524, 1978). Briefly, mice were sacrificed by decapitation followed by dissection and washing of the pancreas in 1×PBS. Pancreas digestion medium (0.75 mg/ml collagenase type XI-S [Sigma], 0.1 mg/ml soybean trypsin inhibitor [Sigma], 1% BSA in DMEM) was injected into the pancreatic parenchyma with a 30 g syringe. Pancreas was then incubated in digestion medium for 20-40 minutes with constant mixing using serological pipets of decreasing diameters. Cells were filtered through a 100 μm strainer and washed 3 times with incubation medium (0.1 mg/ml soybean trypsin inhibitor, 1% BSA in DMEM) via centrifugation at 50×g for 3 minutes per wash. Cells were plated and allowed to recover for 2 hours in incubation medium at 37° C.
Primary acinar and AR42J cells were treated with vehicle, FGF21 (1 μg/ml for both primary acinar cells and AR42J) or CCK (10 pM for primary acinar cells and 100 pM for AR42J cells [Phoenix Pharmaceuticals]) for 30 minutes at 37° C. Amylase levels in both the cell medium and cells were analyzed using an Amylase Assay Kit (Abcam).

[13] = system: Fgf21-transgenic (Tg) mice; test: Cerulein-induced pancreatitis (CIP), ER stress markers; assay type: in vivo, mouse; conditions: chronic FGF21 via liver-specific transgene, supraphysiologic circulating levels; cerulein 50 μg/kg, seven hourly i.p. injections
Text: as §1, with “experiments. […]” for “experiments.”
Pancreas was homogenized using Fastprep-24 lysing matrix bead tubes (MP Biomedicals) in 1×RIPA buffer (Cell Signaling Technology) supplemented with a cocktail of protease and phosphatase inhibitors (Roche). Protein lysate concentrations were measured using the DC Protein Assay (Biorad). […] Membranes were developed using the Super Signal West Chemiluminescence Kit (Thermo) and signal was detected with an ImageQuant LAS4000 luminescent imager (General Electric). Quantification was done using Image J.

[14] = system: Female Swiss Webster mice; test: ERCP-induced pancreatitis model, histological grading of pancreas; assay type: in vivo, mouse; conditions: 1 mg/kg FGF21, 4 subcutaneous injections
Method: To evaluate if FGF21 confers a beneficial effect against ERCP-induced pancreatitis, a preclinical study was performed in an established rodent model of ERCP that develops pancreatitis 24 hours after ERCP. Female Swiss Webster mice were treated with either 4 subcutaneous injections of vehicle or 1 mg/kg FGF21 in the following way: 1 injection the day prior to ERCP, 2 injections the day of the ERCP procedure, and 1 injection the day following ERCP. Mice were subjected to the ERCP procedure, which consisted of a high-pressure infusion of a radiocontrast agent through the pancreatic duct.

[15] = Klb^Cela1−/− mice, juice collected for 15 min

Molecule	3H-phenylalanine incorporation into pancreatic protein (pancreatic protein synthesis) [2]	phosphorylation of eIF4E-BP1 in pancreas [3]	ERK1/2 phosphorylation in pancreas (FIG. 4F) [4]	ERK1/2 phosphorylation in pancreas (FIG. 3B) [4]	intracellular calcium release (ΔF/F0) [6]	block of CCK-mediated calcium release ([6]; 100 pM CCK)	block of calcium release elicited by FGF21 [6]	other results
cholecystokinin [CCK]	significantly increased	increased	induced	induced	triggered intracellular calcium release	–	–	change of FGF21 in the blood [1]: without any change; increase in the concentration of FGF21 in the pancreatic juice [1]: 3 fold; phosphorylation of PLCβ in pancreas [5]: induced; time to peak calcium levels after treatment ([6]; 100 pM CCK): ≤ 30 s
NCCOB(c1ccccc1)c1ccccc1 [2-APB]	–	–	–	–	–	blocked	blocked	–
CN1C(=O)[C@@H](NC(=O)c2cc3ccccc3[nH]2)N=C(c2ccccc2)c2ccccc21 [L-364,718]	–	–	–	–	–	blocked	not	–
COc1ccc2c(c1)CC[C@@H]1[C@@H]2CC[C@]2(C)[C@@H](NCCCCCCN3C(=O)C=CC3=O)CC[C@@H]12 [U73122]	–	–	–	–	–	blocked	blocked	–
CCN(CC)CCCCNc1ncc2cc(-c3cc(OC)cc(OC)c3)c(NC(=O)NC(C)(C)C)nc2n1 [PD173074]	–	–	–	–	–	not	blocked	–
B1	no significant effect	no effect	induced	induced	triggered intracellular calcium release	–	–	pancreatic eosinophilic area fraction [7]: decreased the pancreatic eosinophilic area fraction in Fgf21-KO mice to wild type (WT) levels; pancreatic digestive enzyme levels (amylase, lipase), immunoblot [8]: reduction; phosphorylation of PLCγ in pancreas [9]: induced; effect on digestive enzyme secretion (amylase in pancreatic juice) in Klb^Cela1−/− mice [10, 15]: absent; effect on pancreatic juice flow rate in Klb^Cela1−/− mice [10, 15]: significantly reduced but not eliminated; digestive enzyme secretion into pancreatic juice ([10]; control mice): stimulate; pancreatic juice flow ([10]; control mice): stimulate; blood concentrations of secretin [11]: did not increase; amylase (digestive enzyme) secretion from acinar cells [12]: Induce Pancreatic Digestive Enzyme Secretion; time to peak calcium levels after treatment ([6]; 1 μg/ml FGF21): 60 to 120 s; ER stress parameters (p-eIF2α, Atf4, Chop, Bip mRNA) in response to CIP [13]: suppressed; edema after ERCP, histological grading [14]: decreased; inflammation after ERCP, histological grading [14]: decreased
